# Measured values from patent publication US20240343831A1 (Regeneron, published 2024).
# B1: mAb8021 (antibody, human IgG4 S228P, kappa, V domains shown)
# VH: QVQLVQSGAEVKKPGASVRVSCKASGYTFTNYGITWVRQAPGQGLEWMGGISVYNGNTEYAEKFQGRVSMTTDTSTTTAYLELRSLKSDDTAVYFCARGQLDYFDPWGQGTLVTVSS
# VL: EIVMTQSPATLSVSPGERATLSCRASQSVRSNLAWYQQKPGQAPSLLIYGASTRATGIPARFSGSGSGTEFTLTISSLQSEDFAVYFCLQYNNWWTFGQGTKVEIKR
# notes: also called anti-TMPRSS2 mAb
# B2: mAb8029 (antibody, human IgG4 S228P, kappa, V domains shown)
# VH: QLQLQESGPGLVKPSETLSLTCTVSGGSINSNSYYWGWIRQPPGKGLEWIGSIYYDRNTYYTPSLKSRVTISVDTSKNQFSLKLTSVTAADTAVYYCAREQVPGYYGMDVWGQGTTVTVSS
# VL: DIQLTQSPSFLSASVGDRVTITCWASQGISRYLAWYQQKPGKTPKLLIYAASTLQSGVPSRFSGTGSGTDFTLTISNLQPEDFATYYCQQFDSYPWTFGQGTKVEIKR
# notes: also called anti-TMPRSS2 mAb
# Assays:
# [1] = target: Macaca fascicularis TMPRSS2-MMH (Macaca fascicularis); experiment: SPR Biacore T200, 37 C, t½ at pH 7.4 over t½ at pH 6.0
# [2] = target: T1, ectodomain of human TMPRSS2-myc-myc-His (human, UniProt O15393 106-492); experiment: as above
# T1 construct: extracellular domain; also called hTMPRSS2-MMH; human TMPRSS2-MMH
# Protocol: (§1) Dissociation rate constant (kd) for TMPRSS2 binding to purified anti-TMPRSS2 monoclonal antibody was determined using a real-time surface plasmon resonance based Biacore T200 biosensor platform. […] The CM5 Biacore sensor surface derivatized by amine coupling with an anti-human Fc specific mouse mAb was used to capture different anti-TMPRSS2 mAbs. All the TMPRSS2 reagents were expressed with a C-terminal myc-myc-hexahistidine tag (subsequently referred to as TMPRSS2-MMH).
# (§2) Dissociation rate constants (kd) in two running buffers were determined by fitting the real-time binding sensorgrams to a 1:1 binding model using Scrubber 2.0c curve-fitting software.
# [3] = target: Macaca fascicularis TMPRSS2-MMH (Macaca fascicularis); experiment: SPR Biacore T200, mAb captured by anti-human Fc, 25 C, HBS-P pH 7.4
# [4] = target: Macaca fascicularis TMPRSS2-MMH (Macaca fascicularis); experiment: SPR Biacore T200, mAb captured by anti-human Fc, 37 C, HBS-P pH 7.4
# [5] = target: T1, ectodomain of human TMPRSS2-myc-myc-His; experiment: SPR Biacore T200, mAb captured by anti-human Fc, 25 C, HBS-P pH 7.4
# Protocol: (§3) The equilibrium dissociation constant (KD) for TMPRSS2 binding to different TMPRSS2 monoclonal antibodies (mAbs) was determined with a real-time surface plasmon resonance biosensor using a Biacore T200 instrument. All binding studies were performed in 10 mM HEPES, 150 mM NaCl, and 0.05% v/v Surfactant Tween-20, pH 7.4 (HBS-P) running buffer at 25° C. and 37° C. […] At the end of each cycle, the TMPRSS2 mAb captured surface was regenerated using a 12 sec injection of 20 mM phosphoric acid.
# (§4) The association rate (kₐ) and dissociation rate (kd) were determined by fitting the real-time binding sensorgrams to a 1:1 binding model with mass transport limitation using Scrubber 2.0c curve-fitting software. Binding dissociation equilibrium constant (KD) and dissociative half-life (t½) were calculated from the kinetic rates as:
# [6] = target: T1, ectodomain of human TMPRSS2-myc-myc-His; experiment: SPR Biacore T200, mAb captured by anti-human Fc, 37 C, HBS-P pH 7.4
# Protocol: as §3, §4
# [7] = target: Macaca fascicularis TMPRSS2-MMH (Macaca fascicularis); experiment: SPR Biacore T200, mAb captured by anti-human Fc, 37 C, dissociation in PBS-T pH 6.0
# [8] = target: Macaca fascicularis TMPRSS2-MMH (Macaca fascicularis); experiment: SPR Biacore T200, mAb captured by anti-human Fc, 37 C, dissociation in PBS-T pH 7.4
# [9] = target: T1, ectodomain of human TMPRSS2-myc-myc-His; experiment: SPR Biacore T200, mAb captured by anti-human Fc, 37 C, dissociation in PBS-T pH 6.0
# Protocol: as §1, §2
# [10] = target: T1, ectodomain of human TMPRSS2-myc-myc-His; experiment: SPR Biacore T200, mAb captured by anti-human Fc, 37 C, dissociation in PBS-T pH 7.4
# Protocol: as §1, §2
# mouse TMPRSS2-MMH [11] = target: T2, mouse TMPRSS2-MMH (mouse, UniProt Q9JIQ8 105-490); experiment: SPR Biacore T200, 37 C, t½ at pH 7.4 over t½ at pH 6.0
# T2 construct: extracellular domain; also called mTMPRSS2-MMH
# Protocol: as §1, §2
# mouse TMPRSS2-MMH [12] = target: T2, mouse TMPRSS2-MMH; experiment: SPR Biacore T200, mAb captured by anti-human Fc, 25 C, HBS-P pH 7.4
# Protocol: as §3, §4
# mouse TMPRSS2-MMH [13] = target: T2, mouse TMPRSS2-MMH; experiment: SPR Biacore T200, mAb captured by anti-human Fc, 37 C, HBS-P pH 7.4
# Protocol: as §3, §4
# mouse TMPRSS2-MMH [14] = target: T2, mouse TMPRSS2-MMH; experiment: SPR Biacore T200, mAb captured by anti-human Fc, 37 C, dissociation in PBS-T pH 6.0
# Protocol: as §1, §2
# mouse TMPRSS2-MMH [15] = target: T2, mouse TMPRSS2-MMH; experiment: SPR Biacore T200, mAb captured by anti-human Fc, 37 C, dissociation in PBS-T pH 7.4
# Protocol: as §1, §2
# T2 sequence (Q9JIQ8 105-490): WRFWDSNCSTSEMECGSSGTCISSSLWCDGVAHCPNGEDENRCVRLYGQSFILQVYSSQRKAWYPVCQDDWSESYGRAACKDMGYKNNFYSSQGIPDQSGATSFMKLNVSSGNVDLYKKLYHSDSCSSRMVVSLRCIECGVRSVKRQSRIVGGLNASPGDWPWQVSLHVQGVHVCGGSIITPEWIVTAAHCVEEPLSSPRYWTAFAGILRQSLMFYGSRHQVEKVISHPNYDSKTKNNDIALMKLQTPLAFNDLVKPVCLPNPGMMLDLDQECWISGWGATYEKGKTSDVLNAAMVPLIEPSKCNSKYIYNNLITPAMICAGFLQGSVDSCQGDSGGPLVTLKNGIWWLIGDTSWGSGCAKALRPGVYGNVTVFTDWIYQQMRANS
# T1 sequence (O15393 106-492): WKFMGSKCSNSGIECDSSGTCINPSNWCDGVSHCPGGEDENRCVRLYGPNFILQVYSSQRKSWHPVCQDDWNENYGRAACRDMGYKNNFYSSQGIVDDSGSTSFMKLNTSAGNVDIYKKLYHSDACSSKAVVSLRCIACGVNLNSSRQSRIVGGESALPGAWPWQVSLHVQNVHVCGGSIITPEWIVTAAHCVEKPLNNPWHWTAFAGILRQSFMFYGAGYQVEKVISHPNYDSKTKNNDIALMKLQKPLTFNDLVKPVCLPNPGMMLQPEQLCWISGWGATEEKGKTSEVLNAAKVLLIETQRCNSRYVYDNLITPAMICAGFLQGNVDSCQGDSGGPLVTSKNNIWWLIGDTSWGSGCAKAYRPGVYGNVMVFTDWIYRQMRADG
binder,measurement,setting,value
B1,t½ Ratio (pH 7.4/pH 6.0),[1],0.9
same,t½ Ratio (pH 7.4/pH 6.0),[2],0.7
same,100 nM mfTMPRSS2-MMH Bound (RU),[3],63.4 RU
same,Kd,[3],0.0252 nM
same,koff,[3],0.000113 s⁻¹
same,kon,[3],4.48e+06 M⁻¹ s⁻¹
same,t½,[3],102 min
same,100 nM mfMPRSS2-MMH Bound (RU),[4],36.7 RU
same,Kd,[4],0.0141 nM
same,koff,[4],0.000109 s⁻¹
same,kon,[4],7.71e+06 M⁻¹ s⁻¹
same,t½,[4],106 min
same,Kd,[5],0.0299 nM
same,koff,[5],9.19e-05 s⁻¹
same,kon,[5],3.08e+06 M⁻¹ s⁻¹
same,t½,[5],126 min
same,Kd,[6],0.0627 nM
same,koff,[6],0.000261 s⁻¹
same,kon,[6],4.17e+06 M⁻¹ s⁻¹
same,t½,[6],44.2 min
same,100 nm Ag Bound (RU),[7],70 RU
same,koff,[7],0.000111 s⁻¹
same,t½,[7],104 min
same,100 nm Ag Bound (RU),[8],71 RU
same,koff,[8],0.000127 s⁻¹
same,t½,[8],91 min
same,koff,[9],0.000129 s⁻¹
same,t½,[9],90 min
same,koff,[10],0.000192 s⁻¹
same,t½,[10],60 min
B2,t½ Ratio (pH 7.4/pH 6.0),[1],0.8
same,t½ Ratio (pH 7.4/pH 6.0),[2],1
same,t½ Ratio (pH 7.4/pH 6.0),mouse TMPRSS2-MMH [11],1
same,100 nM mfTMPRSS2-MMH Bound (RU),[3],66.7 RU
same,Kd,[3],0.0609 nM
same,koff,[3],0.000196 s⁻¹
same,kon,[3],3.2e+06 M⁻¹ s⁻¹
same,t½,[3],59.1 min
same,100 nM mfMPRSS2-MMH Bound (RU),[4],35.3 RU
same,Kd,[4],0.0758 nM
same,koff,[4],0.000392 s⁻¹
same,kon,[4],5.17e+06 M⁻¹ s⁻¹
same,t½,[4],29.5 min
same,Kd,[5],0.0592 nM
same,koff,[5],0.000129 s⁻¹
same,kon,[5],2.18e+06 M⁻¹ s⁻¹
same,t½,[5],89.5 min
same,Kd,[6],0.216 nM
same,koff,[6],0.000673 s⁻¹
same,kon,[6],3.12e+06 M⁻¹ s⁻¹
same,t½,[6],17.2 min
same,Kd,mouse TMPRSS2-MMH [12],3.33 nM
same,koff,mouse TMPRSS2-MMH [12],0.000442 s⁻¹
same,kon,mouse TMPRSS2-MMH [12],133000 M⁻¹ s⁻¹
same,t½,mouse TMPRSS2-MMH [12],26.2 min
same,Kd,mouse TMPRSS2-MMH [13],9.75 nM
same,koff,mouse TMPRSS2-MMH [13],0.00209 s⁻¹
same,kon,mouse TMPRSS2-MMH [13],214000 M⁻¹ s⁻¹
same,t½,mouse TMPRSS2-MMH [13],5.5 min
same,100 nm Ag Bound (RU),[7],94 RU
same,koff,[7],0.000339 s⁻¹
same,t½,[7],34 min
same,100 nm Ag Bound (RU),[8],90 RU
same,koff,[8],0.000408 s⁻¹
same,t½,[8],28 min
same,koff,[9],0.000615 s⁻¹
same,t½,[9],19 min
same,koff,[10],0.000624 s⁻¹
same,t½,[10],19 min
same,koff,mouse TMPRSS2-MMH [14],0.00257 s⁻¹
same,t½,mouse TMPRSS2-MMH [14],4 min
same,koff,mouse TMPRSS2-MMH [15],0.00246 s⁻¹
same,t½,mouse TMPRSS2-MMH [15],5 min
